Results as given in publication PMC7430982 (Proceedings of the National Academy of Sciences of the …, 2020).

Experiments:
cross-linking = biological target: the molecule itself; experiment: cross-linking
crystal structure = biological target: the molecule itself; experiment: crystal structure
cryo-EM structure = biological target: the molecule itself; experiment: cryo-EM structure

B1: NaAtm1 A527C (natural protein)
chain: MPPETATNPKDARHDGWQTLKRFLPYLWPADNAVLRRRVVGAILMVLLGKATTLALPFAYKKAVDAMTLGGGAQPALTVALAFVLAYALGRFSGVLFDNLRNIVFERVGQDATRHLAENVFARLHKLSLRFHLARRTGEVTKVIERGTKSIDTMLYFLLFNIAPTVIELTAVIVIFWLNFGLGLVTATILAVIAYVWTTRTITEWRTHLREKMNRLDGQALARAVDSLLNYETVKYFGAESREEARYASAARAYADAAVKSENSLGLLNIAQALIVNLLMAGAMAWTVYGWSQGKLTVGDLVFVNTYLTQLFRPLDMLGMVYRTIRQGLIDMAEMFRLIDTHIEVADVPNAPALVVNRPSVTFDNVVFGYDRDREILHGLSFEVAAGSRVAIVGPSGAGKSTIARLLFRFYDPWEGRILIDGQDIAHVTQTSLRAALGIVPQDSVLFNDTIGYNIAYGRDGASRAEVDAAAKGAAIADFIARLPQGYDTEVGERGLKLSGGEKQRVAIARTLVKNPPILLFDEATSCLDTRTEQDILSTMRAVASHRTTISIAHRLSTIADSDTILVLDQGRLAEQGSHLDLLRRDGLYAEMWARQAAESAEVSEAAE
modifications: disulfide between the two equivalent C527 residues of the dimer (crosslinking yield ~70%)
crosslinking yield (cross-linking): ~70%

B2: NaAtm1 S526C (natural protein)
chain: MPPETATNPKDARHDGWQTLKRFLPYLWPADNAVLRRRVVGAILMVLLGKATTLALPFAYKKAVDAMTLGGGAQPALTVALAFVLAYALGRFSGVLFDNLRNIVFERVGQDATRHLAENVFARLHKLSLRFHLARRTGEVTKVIERGTKSIDTMLYFLLFNIAPTVIELTAVIVIFWLNFGLGLVTATILAVIAYVWTTRTITEWRTHLREKMNRLDGQALARAVDSLLNYETVKYFGAESREEARYASAARAYADAAVKSENSLGLLNIAQALIVNLLMAGAMAWTVYGWSQGKLTVGDLVFVNTYLTQLFRPLDMLGMVYRTIRQGLIDMAEMFRLIDTHIEVADVPNAPALVVNRPSVTFDNVVFGYDRDREILHGLSFEVAAGSRVAIVGPSGAGKSTIARLLFRFYDPWEGRILIDGQDIAHVTQTSLRAALGIVPQDSVLFNDTIGYNIAYGRDGASRAEVDAAAKGAAIADFIARLPQGYDTEVGERGLKLSGGEKQRVAIARTLVKNPPILLFDEATCALDTRTEQDILSTMRAVASHRTTISIAHRLSTIADSDTILVLDQGRLAEQGSHLDLLRRDGLYAEMWARQAAESAEVSEAAE
modifications: disulfide between the two equivalent C526 residues of the dimer (crosslinking yield ~70%)
crosslinking yield (cross-linking): ~70%

B3: NaAtm1 E523Q (ATP-hydrolysis-deficient Walker-B mutant) (natural protein)
chain: MPPETATNPKDARHDGWQTLKRFLPYLWPADNAVLRRRVVGAILMVLLGKATTLALPFAYKKAVDAMTLGGGAQPALTVALAFVLAYALGRFSGVLFDNLRNIVFERVGQDATRHLAENVFARLHKLSLRFHLARRTGEVTKVIERGTKSIDTMLYFLLFNIAPTVIELTAVIVIFWLNFGLGLVTATILAVIAYVWTTRTITEWRTHLREKMNRLDGQALARAVDSLLNYETVKYFGAESREEARYASAARAYADAAVKSENSLGLLNIAQALIVNLLMAGAMAWTVYGWSQGKLTVGDLVFVNTYLTQLFRPLDMLGMVYRTIRQGLIDMAEMFRLIDTHIEVADVPNAPALVVNRPSVTFDNVVFGYDRDREILHGLSFEVAAGSRVAIVGPSGAGKSTIARLLFRFYDPWEGRILIDGQDIAHVTQTSLRAALGIVPQDSVLFNDTIGYNIAYGRDGASRAEVDAAAKGAAIADFIARLPQGYDTEVGERGLKLSGGEKQRVAIARTLVKNPPILLFDQATSALDTRTEQDILSTMRAVASHRTTISIAHRLSTIADSDTILVLDQGRLAEQGSHLDLLRRDGLYAEMWARQAAESAEVSEAAE
binding result (crystal structure): binds

B4: NaAtm1 (ABC transporter of mitochondria homolog from Novosphingobium aromaticivorans), wild type (natural protein)
chain: MPPETATNPKDARHDGWQTLKRFLPYLWPADNAVLRRRVVGAILMVLLGKATTLALPFAYKKAVDAMTLGGGAQPALTVALAFVLAYALGRFSGVLFDNLRNIVFERVGQDATRHLAENVFARLHKLSLRFHLARRTGEVTKVIERGTKSIDTMLYFLLFNIAPTVIELTAVIVIFWLNFGLGLVTATILAVIAYVWTTRTITEWRTHLREKMNRLDGQALARAVDSLLNYETVKYFGAESREEARYASAARAYADAAVKSENSLGLLNIAQALIVNLLMAGAMAWTVYGWSQGKLTVGDLVFVNTYLTQLFRPLDMLGMVYRTIRQGLIDMAEMFRLIDTHIEVADVPNAPALVVNRPSVTFDNVVFGYDRDREILHGLSFEVAAGSRVAIVGPSGAGKSTIARLLFRFYDPWEGRILIDGQDIAHVTQTSLRAALGIVPQDSVLFNDTIGYNIAYGRDGASRAEVDAAAKGAAIADFIARLPQGYDTEVGERGLKLSGGEKQRVAIARTLVKNPPILLFDEATSALDTRTEQDILSTMRAVASHRTTISIAHRLSTIADSDTILVLDQGRLAEQGSHLDLLRRDGLYAEMWARQAAESAEVSEAAE
binding result (cryo-EM structure): binds
